From article PMC12342132, “Mechanistic insights into the GEF activity of the human MON1A/CCZ1/C18orf8 complex” (Protein & Cell, 2025) come the findings set out here.

To fix the notation:
B1: CCZ1 (1–482) (natural protein, human, UniProt P86791 1-482, looked up)
chain: MAAAAAGAGSGPWAAQEKQFPPALLSFFIYNPRFGPREGQEENKILFYHPNEVEKNEKIRNVGLCEAIVQFTRTFSPSKPAKSLHTQKNRQFFNEPEENFWMVMVVRNPIIEKQSKDGKPVIEYQEEELLDKVYSSVLRQCYSMYKLFNGTFLKAMEDGGVKLLKERLEKFFHRYLQTLHLQSCDLLDIFGGISFFPLDKMTYLKIQSFINRMEESLNIVKYTAFLYNDQLIWSGLEQDDMRILYKYLTTSLFPRHIEPELAGRDSPIRAEMPGNLQHYGRFLTGPLNLNDPDAKCRFPKIFVNTDDTYEELHLIVYKAMSAAVCFMIDASVHPTLDFCRRLDSIVGPQLTVLASDICEQFNINKRMSGSEKEPQFKFIYFNHMNLAEKSTVHMRKTPSVSLTSVHPDLMKILGDINSDFTRVDEDEEIIVKAMSDYWVVGKKSDRRELYVILNQKNANLIEVNEEVKKLCATQFNNIFFLD
notes: human CCZ1, residues 1-482; Subunit of m3, written alone for the pairwise contacts in the structure

Experiment [1] concerns the target T1, C18orf8 (1–657) (human, UniProt Q96DM3 1-657).
T1 construct: Subunit of m3, written alone for the pairwise contacts in the structure
T1 sequence (looked up): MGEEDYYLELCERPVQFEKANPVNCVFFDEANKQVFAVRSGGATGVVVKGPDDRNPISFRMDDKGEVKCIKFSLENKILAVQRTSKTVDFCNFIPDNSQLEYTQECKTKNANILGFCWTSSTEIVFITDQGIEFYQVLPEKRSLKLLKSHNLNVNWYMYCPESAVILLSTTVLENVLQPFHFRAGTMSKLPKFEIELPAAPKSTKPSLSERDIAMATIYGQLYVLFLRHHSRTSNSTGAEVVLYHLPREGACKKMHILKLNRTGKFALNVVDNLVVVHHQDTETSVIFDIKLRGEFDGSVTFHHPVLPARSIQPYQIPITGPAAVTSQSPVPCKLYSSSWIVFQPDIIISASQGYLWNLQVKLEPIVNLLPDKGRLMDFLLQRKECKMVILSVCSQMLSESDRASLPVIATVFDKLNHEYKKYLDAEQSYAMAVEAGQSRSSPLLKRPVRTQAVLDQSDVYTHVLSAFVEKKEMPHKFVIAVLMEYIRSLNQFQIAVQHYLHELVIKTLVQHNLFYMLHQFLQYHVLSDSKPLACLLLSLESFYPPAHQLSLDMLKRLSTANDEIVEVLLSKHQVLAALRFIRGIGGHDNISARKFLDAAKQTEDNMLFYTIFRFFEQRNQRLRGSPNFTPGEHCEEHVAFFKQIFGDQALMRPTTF
Briefly: cryo-EM structure; MON1A (235–652)/CCZ1 (1–482)/C18orf8 (1–657)/Rab7A (1–181) T22N complex, 3.41 Å. Particulars: both partners purified.

Experiment [2] has as its target B1. The description is as above. Particulars: both partners purified.

As for B1, the binding result in experiment [1] is “binds”.

B2: MON1A (235–652) (domain or fragment, human, UniProt Q86VX9 235-652, looked up)
chain: GTTEGDEEDATEAWRLHQKHVFVLSEAGKPVYSRYGSEEALSSTMGVMVALVSFLEADKNAIRSIHADGYKVVFVRRSPLVLVAVARTRQSAQELAQELLYIYYQILSLLTGAQLSHIFQQKQNYDLRRLLSGSERITDNLLQLMARDPSFLMGAARCLPLAAAVRDTVSASLQQARARSLVFSILLARNQLVALVRRKDQFLHPIDLHLLFNLISSSSSFREGEAWTPVCLPKFNAAGFFHAHISYLEPDTDLCLLLVSTDREDFFAVSDCRRRFQERLRKRGAHLALREALRTPYYSVAQVGIPDLRHFLYKSKSSGLFTSPEIEAPYTSEEEQERLLGLYQYLHSRAHNASRPLKTIYYTGPNENLLAWVTGAFELYMCYSPLGTKASAVSAIHKLMRWIRKEEDRLFILTPLTY
notes: Subunit of m3, written alone for the pairwise contacts in the structure
For the molecule B2, the binding result in experiment [1] and in experiment [2] was “binds” throughout.
